# Assay results as given in PMC9716016.
# B1: ScAMT2;1 (Saccharum hybrid cultivar SP80-3280) (protein)
# chain: MAASGGAYAAQLPAVPEWLNKGDNAWQLTAATLVGIQSMPGLVVLYGSIVKKKWAVNSAFMALYAYASSLLVWVLVGFRMAFGERLLPFWGKAGVALSQGYLVRRASLSATAHGDTPRTEPLYPEATLVLFQFEFAAITLVLLAGSVLGRMNIKAWMAFTPLWLLFSYTVGAFSLWGGGFLYHWGVIDYSGGYVIHLSSGVAGFTAAYWVGPRLKSDRERFSPNNILLMIAGGGLLWMGWAGFNGGAPYAANIAASVAVLNTNVSAATSLLTWTCLDVIFFNKPSVIGAVQGMMTGLVCITPGAGLVQTWAAVIMGVFAGSVPWFTMMILHKKSALLMKVDDTLAVFHTHAVAGLLGGVLTGLLATPELLEIESPVPGLRGAFYGGGAQQVGKQLAGAAFVVAWNVAVTSLILFAIGLLVPLRMPDDQLMIGDDAAHGEEAYALWGDGEKFDATRHDLAARVGGGGMMDREGSADQRMSGMGARGVTIQL
# Substrate: N
# Test: cells, lysate or membranes
# Settings: labelled compound; (15NH4)2SO4 (60% 15N), 10 min; N-starved 3 d; qko background subtracted; whole-root uptake
protein,measurement,value
B1,Km,90.17 µM
